Source: patent US20220251219A1 (published 2022)

Tests used:
[1] = molecular target: T1, recombinant human Sortilin (human, UniProt Q99523 78-830); experiment: flow cytometry, 10 ug/ml antibody on 293 cells expressing recombinant human Sortilin, PE anti-human secondary
T1 construct: also called hSort; SORT1
Experimental: (§1) Cells were harvested, plated at 10⁵/ml in a 96 well plate, washed, and incubated in 100 μl PBS containing 10 μg/ml Mab and 2% FBS for 1 hour in ice. Cells were then washed twice and incubated in 100 μl PBS+2% FBS containing 5 μg/ml PE-conjugated anti-human secondary antibody for 30 minutes in ice. Cells were washed twice in cold PBS and data was acquired on a BD FACS Canto. Data analysis and calculation of MFI values was performed with FlowJo (TreeStar) software version 10.0.7.

[2] = molecular target: T2, recombinant mouse Sortilin (mouse, UniProt Q6PHU5 74-825); experiment: flow cytometry, 10 ug/ml antibody on 293 cells expressing recombinant mouse Sortilin, PE anti-human secondary
T2 construct: also called mSort
Experimental: as §1

human Sortilin = human Sortilin (human, UniProt Q99523 78-830); experiment: cell-based or functional assay
mouse Sortilin = mouse Sortilin (mouse, UniProt Q6PHU5 74-825); experiment: cell-based or functional assay
[3] = molecular target: T3, human Sortilin expressed on HEK293T cells (human, UniProt Q99523 78-830); experiment: flow cytometry, antibody titration on HEK293T cells stably expressing human Sortilin, 4 C, apparent KD by non-linear fit
T3 construct: also called hSort; HEK293T + hSort
Experimental: (§2) Antibodies were diluted in FACS buffer (PBS+2% FBS+0.01% NaAzide). After incubation on ice for 1 h, cells were washed three times in FACS buffer and incubated with anti-human PE conjugated secondary antibody (BD Biosciences, 1:100 dilution) for 30 min on ice. Then cells were washed twice in 200 μl FACS buffer, and subsequently analyzed on a FACS Canto or iQE FACS screening instrument (Intellicyt Corp).

[4] = molecular target: T4, mouse Sortilin expressed on HEK293T cells (mouse, UniProt Q6PHU5 74-825); experiment: flow cytometry, antibody titration on HEK293T cells transiently expressing mouse Sortilin, 4 C, apparent KD by non-linear fit
T4 construct: also called msSort; mSort
Experimental: as §2

Binder	MFI binding [1] [MFI]	MFI binding [2] [MFI]	further results
anti-Sortilin antibody S-73 (antibody, V domains shown, Tested as full IgG made in yeast) VH: QVQLQESGPGLVKPSQTLSLTCTVSGGSISSGTYYWSWIRQHPGKGLEWIGYIYYSGSTYYNPSLKSRVTISVDTSKNQFSLKLSSVTAADTAVYYCARGVGRYRVADYWGQGTLVTVSS VL: EIVLTQSPATLSLSPGERATLSCRASQSVSSYLAWYQQKPGQAPRLLIYDASNRATGIPARFSGSGSGTDFTLTISSLEPEDFAVYYCQQASVYPPITFGGGTKVEIK	8070	7670	–
anti-Sortilin antibody S-74 (antibody, V domains shown, Tested as full IgG made in yeast) VH: QVQLQESGPGLVKPSQTLSLTCTVSGGSISSGTYYWSWIRQHPGKGLEWIGYIYYSGSTYYNPSLKSRVTISVDTSKNQFSLKLSSVTAADTAVYYCARGVGRYRVADYWGQGTLVTVSS VL: EIVMTQSPATLSLSPGERATLSCRASQSVSSYLAWYQQKPGQAPRLLIYDSSNRATGIPARFSGSGSGTDFTLTISSLEPEDFAVYYCQQETNMPPITFGGGTKVEIK	9210	7300	–
anti-Sortilin antibody S-81 (antibody, V domains shown) VH: QLQLQESGPGLVKPSETLSLTCTVSGGSISSSSYYWGWIRQPPGKGLEWIGSIYYSGSTYYNPSLKSRVTISVDTSKNQFSLKLSSVTAADTAVYYCARERWDLGHGMDVWGQGTTVTVSS VL: not shown	–	–	Percent reduction of Sortilin levels in U251 cells (human Sortilin): 18.2%; Percent reduction of Sortilin levels in N2A cells (mouse Sortilin): 51.3%
anti-Sortilin antibody S-69 (antibody, V domains shown, Tested as full IgG made in yeast) VH: QVQLQESGPGLVKPSQTLSLTCTVSGGSISSGGYYWSWIRQHPGKGLEWIGYIYYSGSTYYNPSLKSRVTISVDTSKNQFSLKLSSVTAADTAVYYCARDRGGTHFGADHYYYGMDVWGQGTMVTVSS VL: EIVMTQSPATLSVSPGERATLSCRASQSVSSSLAWYQQKPGQAPRLLIYGASTRATGIPARFSGSGSGTEFTLTISSLQSEDFAVYYCQQAADWPITFGGGTKVEIK	8580	1890	–
anti-Sortilin antibody S-15-10-13 (antibody, V domains shown) VH: QVQLVQSGAEVKKPGASVKVSCKASGYTFTKYYMSWVRQAPGQGLEWMGIINPIGGSTSYARKFQGRVTMTRDTSTSTVYMELSSLRSEDTAVYYCARDPSGIAAAYPASRYNYGMDVWGQGTTVTVSS VL: EIVMTQSPATLSVSPGERATLSCRASQSVSSNLAWYQQKPGQAPRLLIYGASTRATGIPARFSGSGSGTEFTLTISSLQSEDFAVYYCQQARLGPWTFGGGTKVEIK	–	–	Kd [3]: 2.88 nM; Kd [4]: 4.07 nM
anti-Sortilin antibody S-15-6-12 (antibody, V domains shown) VH: QVQLVQSGAEVKKPGASVKVSCKASGYTFTSRYMSWVRQAPGQGLEWMGIINPVGGSTSYAQKFQGRVTMTRDTSTSTVYMELSSLRSEDTAVYYCARDPSGIALAGPGSRYYRGMDVWGQGTTVTVSS VL: EIVMTQSPATLSVSPGERATLSCRASQSVSSNLAWYQQKPGQAPRLLIYGASTRATGIPARFSGSGSGTEFTLTISSLQSEDFAVYYCQQARLGPWTFGGGTKVEIK	–	–	Kd [3]: 3.84 nM; Kd [4]: 6.62 nM
anti-Sortilin antibody S-26 (antibody, V domains shown) VH: EVQLVESGGGLVKPGGSLRLSCAASGFTFSSYSMNWVRQAPGKGLEWVSSISSSSSYIYYADSVKGRFTISRDNAKNSLYLQMNSLRAEDTAVYYCARDRLGRGYKWNWFDPWGQGTLVTVSS VL: DIQMTQSPSSVSASVGDRVTITCRASQGIDSWLAWYQQKPGKAPKLLIYAASSLQSGVPSRFSGSGSGTDFTLTISSLQPEDFATYYCQQGNSLPPITFGGGTKVEIK	–	–	Percent reduction of Sortilin levels in U251 cells (human Sortilin): 17.1%; Percent reduction of Sortilin levels in N2A cells (mouse Sortilin): 47.3%

More lines, main results first:

MFI binding [1] [MFI]	MFI binding [2] [MFI]	Binder	further results
7120	7930	anti-Sortilin antibody S-78 (antibody, V domains shown, Tested as full IgG made in yeast) VH: QLQLQESGPGLVKPSETLSLTCTVSGGSISSSDYYWGWIRQPPGKGLEWIGSIYYSGSTYYNPSLKSRVTISVDTSKNQFSLKLSSVTAADTAVYYCARSLAMSGAYFDLWGRGTLVTVSS VL: not shown	–
8940	16600	anti-Sortilin antibody S-81 (antibody, V domains shown, Tested as full IgG made in yeast) VH: QLQLQESGPGLVKPSETLSLTCTVSGGSISSSSYYWGWIRQPPGKGLEWIGSIYYSGSTYYNPSLKSRVTISVDTSKNQFSLKLSSVTAADTAVYYCARERWDLGHGMDVWGQGTTVTVSS VL: not shown	–
9300	–	anti-Sortilin antibody S-83 (antibody, V domains shown, Tested as full IgG made in yeast) VH: QLQLQESGPGLVKPSETLSLTCTVSGGSISSSSYYWGWIRQPPGKGLEWIGSIYYSGSTYYNPSLKSRVTISVDTSKNQFSLKLSSVTAADTAVYYCARGSPTWLRDYYMDVWGKGTTVTVSS VL: EIVLTQSPATLSVSPGERATLSCRASQSVSSNLAWYQQKPGQAPRLLIYGASTRATGIPARFSGSGSGTEFTLTISSLQSEDFAVYYCQQYNAFPPTFGGGTKVEIK	–
9680	4180	anti-Sortilin antibody S-76 (antibody, V domains shown, Tested as full IgG made in yeast) VH: QVQLQESGPGLVKPSQTLSLTCTVSGGSISSGGYYWSWIRQHPGKGLEWIGSIYYSGSTYYNPSLKSRVTISVDTSKNQFSLKLSSVTAADTAVYYCARGVGIQQQLVLGFDPWGQGTLVTVSS VL: DIQMTQSPSSLSASVGDRVTITCRASQSISSFLNWYQQKPGKAPKLLISAASSLQSGVPSRFSGSGSGTDFTLTISSLQPEDFATYYCQQSYREPITFGGGTKVEIK	–
9240	15400	anti-Sortilin antibody S-84 (antibody, V domains shown, Tested as full IgG made in yeast) VH: QLQLQESGPGLVKPSETLSLTCTVSGGSISSSSYYWGWIRQPPGKGLEWIGSISYSGSTYYNPSLKSRVTISVDTSKNQFSLKLSSVTAADTAVYYCARGGTTWLVADVWGQGTMVTVSS VL: not shown	–
